Reference: IntAct's records for PubMed 31000591

B1: T-lymphocyte activation antigen CD80 (Mus musculus), Q00609 (parent)
chain: MACNCQLMQDTPLLKFPCPRLILLFVLLIRLSQVSSDVDEQLSKSVKDKVLLPCRYNSPHEDESEDRIYWQKHDKVVLSVIAGKLKVWPEYKNRTLYDNTTYSLIILGLVLSDRGTYSCVVQKKERGTYEVKHLALVKLSIKADFSTPNITESGNPSADTKRITCFASGGFPKPRFSWLENGRELPGINTTISQDPESELYTISSQLDFNTTRNHTIKCLIKYGDAHVSEDFTWEKPPEDPPDSKNTLVLFGAGFGAVITVVVIVVIIKCFCKHRSCFRRNEASRETNNSLTFGPEEALAEQTVFL

Variants of: B1
Conditions: with pd1l1_mouse Cd274, Q9EP73
pd1l1_mouse Cd274, Q9EP73, sequence (Q9EP73 whole entry): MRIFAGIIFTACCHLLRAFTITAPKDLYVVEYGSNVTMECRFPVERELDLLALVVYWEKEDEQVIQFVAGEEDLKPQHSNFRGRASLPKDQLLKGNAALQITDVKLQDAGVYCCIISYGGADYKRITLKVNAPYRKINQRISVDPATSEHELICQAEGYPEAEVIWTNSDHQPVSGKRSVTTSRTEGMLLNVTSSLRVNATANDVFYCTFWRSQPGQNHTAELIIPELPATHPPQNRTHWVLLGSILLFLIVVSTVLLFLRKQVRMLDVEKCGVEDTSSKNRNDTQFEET
With L107E the “effect of a mutation on the interaction” value was “disrupting interaction strength”.
